Reference: US8841274B2, “Protein arginine N-methyltransferase-5 method of cancer treatment” (priority 2009, dated 2014)

Key:
[1] = tested on: p73-luciferase or cyclinE-luciferase; assay: Reporter assay with E2F-responsive promoters; type: cell-based; conditions: U2OS cells, 48 h, equivalent protein level; compared to wild-type E2F-1; n=3
Protocol: To further explore the role of arginine methylation in the transcription properties of E2F-1, wild-type E2F-1 was compared with the KK and KKK mutants in a reporter-based transfection assay, using E2F-responsive promoters derived from E2F target genes. The assay was performed under conditions in which each mutant protein was expressed at an equivalent level to wild-type E2F-1 (FIG. 4aii and bii), thus ruling out any difference in activity that could be attributed to protein levels. […] FIGS. 4a and b show the transcription properties of wild-type E2F-1, KK and KKK mutants. U2OS cells were transfected with expression vectors encoding WT or mutant E2F-1 protein, together with p73-luciferase (A) or cyclinE-luciferase (B) for 48 h as indicated, and pCMV-βgal to monitor transfection efficiency. Relative luciferase activity (luciferase/βgal) is shown together with expression level of ectopic proteins; n=3. […] PRMT5 (P) or control (C) non-targeting siRNA was transfected into U2OS cells together with p73-luciferase (i) or cyclinE-luciferase (ii) for 48 h, together with pCMV-βgal to monitor transfection efficiency. Relative luciferase activity is shown together with expression level of the ectopic proteins.
Cells were transfected with expression vectors (1 μg) encoding WT or the mutant E2F-1 proteins as indicated with E2F responsive luciferase reporters, namely p73-luciferase or cyclinE-luciferase, together with pCMV-βgal to monitor transfection efficiency. Cells were harvested, lysed 48 h post-transfection and luciferase activity measured as previously described (Janson et al 2008).

PRMT5 [2] = biological target: T1, PRMT5 (Homo sapiens, UniProt O14744); assay: GST binding assay with U2OS cell lysate, PRMT5 immunoblot; design: The indicated GST proteins were incubated with U2OS cell lysate; endogenous in cells; host or cells: U2OS; conditions: GST-E2F-1 proteins incubated with U2OS cell lysate
Protocol: It was then assessed whether E2F-1 could interact with PRMT5 and thereafter the role of each R residue in mediating the interaction. […] The indicated GST proteins were incubated with U2OS cell lysate, and bound proteins immunoblotted using anti-GST (for input GST), DP-1 or PRMT5 antibodies. Binding to DP-1, the major heterodimeric partner for E2F-1 (Stevens and La Thangue 2003), served as a control since it bound equally to each of the E2F-1 proteins.
GST or GST tagged proteins (10 μg each) were incubated with agarose beads and damaged or undamaged U2OS cell lysates for 3 h. Beads were then washed with TNN buffer 3 times. SDS sample buffer was added to beads and samples were analysed by immunoblotting.
Target sequence in this assay (O14744 whole entry): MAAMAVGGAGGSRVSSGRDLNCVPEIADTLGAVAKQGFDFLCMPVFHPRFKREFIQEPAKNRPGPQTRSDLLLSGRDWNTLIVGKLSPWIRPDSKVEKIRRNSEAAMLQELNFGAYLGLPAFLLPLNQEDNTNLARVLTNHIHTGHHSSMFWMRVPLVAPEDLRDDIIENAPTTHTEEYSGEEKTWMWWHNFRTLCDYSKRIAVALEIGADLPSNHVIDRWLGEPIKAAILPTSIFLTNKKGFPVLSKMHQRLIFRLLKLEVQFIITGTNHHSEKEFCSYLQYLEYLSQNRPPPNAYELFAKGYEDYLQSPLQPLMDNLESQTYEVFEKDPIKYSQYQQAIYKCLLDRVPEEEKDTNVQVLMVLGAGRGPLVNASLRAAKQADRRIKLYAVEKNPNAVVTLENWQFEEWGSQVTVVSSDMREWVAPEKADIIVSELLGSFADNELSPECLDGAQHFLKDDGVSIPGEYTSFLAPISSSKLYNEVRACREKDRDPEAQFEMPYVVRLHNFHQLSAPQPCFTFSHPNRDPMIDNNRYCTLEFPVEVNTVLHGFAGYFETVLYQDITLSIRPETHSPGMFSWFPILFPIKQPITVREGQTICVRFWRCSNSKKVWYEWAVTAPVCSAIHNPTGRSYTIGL

PRMT5 [3] = biological target: T1, PRMT5; assay: Co-immunoprecipitation of ectopic E2F-1 with PRMT5 in U2OS cells; type: cell-based; design: The indicated GST proteins were incubated with U2OS cell lysate; endogenous in cells; host or cells: U2OS; conditions: expression vector transfected into U2OS cells, HA11 IP
From the text: To establish whether E2F-1 was able to bind to PRMT5 in cells, the interaction between ectopic wild-type E2F-1 or KKK with PRMT5 was studied. […] Either a wild-type E2F-1 expression vector or a KKK expression vector was transfected into U2OS cells, and HA11 antibody was used for immunoprecipitation (IP) followed by immunoblotting with HA11 (E2F-1), PRMT5 or DP-1 as indicated. The level of input (In) protein is indicated. […] In contrast, binding to DP-1 was equivalent for both wild-type E2F-1 and KKK. […] Further, the RGRGR motif is necessary for the interaction, which also encompasses the site of PRMT5 methylation.
Cells were either left untransfected or transfected with expression vectors as indicated. At 48 h post transfection, cells were harvested in TNN buffer (50 mM Tris-HC1 [pH 7.4], 150 mM NaCl, 5 mM EDTA, 0.5% Ipegal, 50 mM NaF, 0.2 mM sodium orthovanadate and protease inhibitor cocktail (1 mM PMSF, leupeptin [1 μg/ml], aprotinin [1 μg/m1], and pepstatin A [1 μg/ml])) and rotated at 4° C. for 30 min to 1 h. The cell lysate was then homogenised, centrifuged at 11000 rpm for 10 min to remove cell debris and the supernatant collected. All lysates were normalized for protein concentration and, where appropriate, for transfection by β-galactosidase activity. […] Enhanced chemi-luminescence (Pierce Biotechnology, Rockford, Ill.) was used to visualize antibody binding.
Target sequence in this assay (O14744 whole entry): as above

PRMT5 [4] = biological target: T1, PRMT5; assay: In vitro methyltransferase assay of E2F-1 proteins; type: biochemical; design: made in house; host or cells: U2OS cells (transient transfection, anti-Flag immunoprecipitation, elution); conditions: about 1 μg protein, 3H labeled SAM; mutants compared with wild-type E2F-1
Protocol: To assess whether the RGRGR motif was a direct target for PRMT5 methylation, a series of mutant derivatives of E2F-1 were made in which each arginine (R) residue was substituted with a lysine residue (K; FIG. 1a), and the ability of the mutant derivative to be methylated in vitro then assessed. […] In FIG. 1b(i) each of the indicated proteins (about 1 μg) was used in the methylation reaction. In vitro methylated samples were analysed by SDS-PAGE as described below. E2F-1 is indicated. In FIG. 1b(ii) samples in FIG. 1b(i) were counted (3H cpm as indicated). Histones treated with PRMT5 served as the positive control. The data shown provide one example taken from two different experiments.
Flag-PRMT5 plasmid was transfected into U2OS cells for 48 h. Cells were lysed and Flag-PRMT5 was immunoprecipitated with agarose beads and then eluted. The elute was mixed with recombinant substrates (GST fusion proteins or histones) in methylation reaction buffer (50 mM Tris, 0.1 mM EDTA, 50 mM NaCl) with ^3H labeled SAM (as —CH3 group donor) to a volume of 40 μl and incubated at 30° C. for 90 min. Half of the reactions were then spotted onto p81 membrane circles (Whatman) and air dried. The membranes were then washed three times, 5 min each in 50 ml of wash buffer (46 mM NaHCO3, 4 mM Na2CO3, pH 9.2). After washing briefly with acetone, membranes were air dried, placed in scintillation vials, immersed in scintillation fluid (Beckman Coulter) and disintegrations per minute (DPM) measured in a scintillation counter. The other half of the reactions were run on SDS-PAGE gel and used to detect ^3H auto-radioisotope/methylation signal.
Target sequence in this assay (O14744 whole entry): as above
Target sequence in this assay (Q9BQA1 whole entry partner): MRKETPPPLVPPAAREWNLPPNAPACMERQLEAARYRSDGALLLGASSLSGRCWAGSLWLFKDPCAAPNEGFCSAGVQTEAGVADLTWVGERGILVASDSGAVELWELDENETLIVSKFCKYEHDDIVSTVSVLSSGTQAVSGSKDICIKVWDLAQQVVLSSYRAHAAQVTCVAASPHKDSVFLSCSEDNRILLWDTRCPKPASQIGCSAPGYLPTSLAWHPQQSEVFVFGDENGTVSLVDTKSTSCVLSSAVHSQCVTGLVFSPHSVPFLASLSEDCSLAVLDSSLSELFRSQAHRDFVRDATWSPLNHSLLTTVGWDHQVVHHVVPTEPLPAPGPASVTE

transcriptional activity (relative luciferase activity) [1]: increased transcriptional activity
binding to PRMT5 (PRMT5 [2]): completely devoid of PRMT5 binding
co-immunoprecipitation with PRMT5 (PRMT5 [3]): not apparent
in vitro methylation by PRMT5 (PRMT5 [4]): could not be methylated by PRMT5
Substance: KKK: methylation-defective E2F-1 protein containing the mutations R109K, R111K and R113K
